Source: patent US20150031620

What was measured:
[1] = tested on: mutant rTMD23NA (thrombomodulin domains 2 and 3 with N364A and N391A)
[2] = tested on: recombinant human TMD23 (wild-type thrombomodulin domains 2 and 3)
Chain of recombinant human TMD23 (wild-type thrombomodulin domains 2 and 3) (chain, as listed by the source): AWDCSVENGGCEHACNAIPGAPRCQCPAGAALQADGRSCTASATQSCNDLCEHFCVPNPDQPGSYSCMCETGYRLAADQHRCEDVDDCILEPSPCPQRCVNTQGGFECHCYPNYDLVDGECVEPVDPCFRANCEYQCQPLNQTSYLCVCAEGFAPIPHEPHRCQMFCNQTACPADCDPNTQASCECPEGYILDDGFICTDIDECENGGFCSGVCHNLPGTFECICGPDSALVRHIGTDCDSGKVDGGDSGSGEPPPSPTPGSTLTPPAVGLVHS

Chain of mutant rTMD23NA (thrombomodulin domains 2 and 3 with N364A and N391A) (chain, as listed by the source N364A N391A): as the sequence (chain, as listed by the source) above, with N141A, N168A counted along it

thrombin
thrombin-dependent activation of protein C (hydrolysis of Chromozym PCa, absorbance at 405 nm) [1]: The mutant rTMD23NA lost its cofactor activity in catalyzing thrombin-dependent activation of Protein C | thrombin-dependent activation of protein C (hydrolysis of Chromozym PCa, absorbance at 405 nm) [2]: only recombinant TMD23 gave rise to thrombin-dependent protein C activation
